Laboratory results published in publication doi:10.1101/2021.12.02.470928 (2021).

B1: PNUTS(1-148), PNUTS amino-terminal domain (PAD) (domain or fragment)
chain: MGSGPIDPKELLKGLDSFLNRDGEVKSVDGISKIFSLMKEARKMVSRCTYLNILLQTRSPEILVKFIDVGGYKLLNNWLTYSKTTNNIPLLQQILLTLQHLPLTVDHLKQNNTAKLVKQLSKSSEDEELRKLASVLVSDWMAVIRSQS

Key:
Test in all cases: BLI
[1] = biological target: MYC(1-88 V19A)
[2] = biological target: MYC(1-88 Q20A)
[3] = biological target: MYC(1-88)-V19A
[4] = biological target: MYC(1-88)-Q20A
[5] = biological target: B1

Row | Binder | Kd [5] | other results
1 | B1 | – | Kd [1]: 8.4 µM; Kd [2]: 5.3 µM; Kd [3]: 8.4 µM; Kd [4]: 5.3 µM
2 | biotinylated MYC(1-88 F23A) (domain or fragment, biotin on the C-terminal AVI tag) MPLNVSFTNRNYDLDYDSVQPYAYCDEEENFYQQQQQSELQPPAPSEDIWKKFELLPTPPLSPSRRSGLCSPSYVAVTPFSLRGDNDG | 19 µM | –
3 | biotinylated MYC(1-88 Y24A) (domain or fragment, biotin on the C-terminal AVI tag) MPLNVSFTNRNYDLDYDSVQPYFACDEEENFYQQQQQSELQPPAPSEDIWKKFELLPTPPLSPSRRSGLCSPSYVAVTPFSLRGDNDG | 37 µM | –
4 | biotinylated MYC(1-88 Y22A) (domain or fragment, biotin on the C-terminal AVI tag) MPLNVSFTNRNYDLDYDSVQPAFYCDEEENFYQQQQQSELQPPAPSEDIWKKFELLPTPPLSPSRRSGLCSPSYVAVTPFSLRGDNDG | 24 µM | –
5 | biotinylated MYC(1-88 P21A) (domain or fragment, biotin on the C-terminal AVI tag) MPLNVSFTNRNYDLDYDSVQAYFYCDEEENFYQQQQQSELQPPAPSEDIWKKFELLPTPPLSPSRRSGLCSPSYVAVTPFSLRGDNDG | 19 µM | –
